The values below come from the DeepSol protein solubility set.

The data set can be described thus: soluble on expression in E. coli; label from the status in PepcDB or PDB records.
As to “MSLIRFRFVDDHRTDYSVKRMCTVLGLNRSSYYKWKASSAQRHRRLVDDAILGAKVQAIFDDKKQLYGAKRIAAELTFNDAYSSTGPVNHKRIARIMRKLQLRGYTKKRKVTTTQRERHRFIFADLVKRNFTAPAANRILVGDITYLPIADGSNMYLASVIDCYSRMLVGFAIADHMRTDLVEEALEHARRTRGSLSGAIFHSDHGSVYTSSQFQAVCRRLNVTQSMGAVGSSADNSLAESFNAALKREVLKDQKVFSNQLVCRRDVFAWCARYNTTRRHSWCKYLTPIEYESHASEGHHHHHH”, the “soluble on expression in E. coli” value is “not soluble”.
The entry for “MGSDKIHHHHHHMNYLQIARNSLAAEQNALAKLSQNLNQQFNQVVELILNCEGRLVVGGIGKSGLIGKKMVATFASTGTPSFFLHPTEAFHGDLGMLKPIDIVMLISYSGESDDVNKLIPSLKNFGNKIIALTGNLNSTLAKHADYILDISVEREACPNNLAPTTSALVTLALGDALAVSLITARNFQPADFAKFHPGGSLGRRLLCRVKDQMQVRLPKVTENTNFTDCLTVMNEGRMGVALVMENENLKGIITDGDIRRALSANGTNTLNKTAKDLMTSNPKTINYNTYLSEAENFMKEKKIHSLVVVDDQNKVIGLVEFSS” is “not soluble”.
Regarding “MGSDKIHHHHHHEVDLYKGGSLREPAYLYPFDQENKNVTAEITIKTNSTINLELLDVYFAPLKYNKHLLIMLTQDDCKPSIYPRTWASINGKPLSGQYYYHYEQLKQDDLPPDIYYLGKTLGCTDGTGKEVRFSFTATLAADDNYMAEESIINLGYSKDNYRFYGRNGILWEDVIDIVNYGNSIAFHNVNTKEIHNIDSIQKHYLIGQDSIQKRLSGRKCKTLSEPDGNIDYTTAAINLDDIKTITAERGEKVYPFHNLTNLENHTLNRVFHDSPDDFKQVIEQERSIPTVDRCAINIGVHSTDAFWTDFLLWLNDTYGKDGEDCIWMPSQEEYYEYNYYRMHGKIEKSADGSTLKLIINLPSQEYFYYPSVTINLKGLKKEDIKSIESNSAVTGLSYGNYQDGVMLNIDCRRFLVEHATHFVEQYEKDKTNQSNKADALYFVNMLKESSKKAELLNRIK”, the “soluble on expression in E. coli” value was “not soluble”.
For the sequence “VEQIMIQGTASDAGKSVIVAGLCRLFKNKGKRVVPFKSQNMSLNSFITATGDEMGRAQVFQAEAAGVFPDVRMNPVLLKPTNDRQSQVIFMGAILDNMDAVSYHDFKQTLIPKIQAVYQSLADENDIIVLEGAGSPAEINLNDRDIVNMGMAKMVDAPVVLVADIDKGGVFASIYGTIMLLKEEERARLKGVIINKFRGDVALLQPGIEMIEELTNVPVIGVIPYANLQL”, the “soluble on expression in E. coli” value was “not soluble”.
As for “MEEKVYLDKLAKRDIKPTAIRLLILKSMMEAGRAVSQLDLETLLDTVDKSTISRTITLFLSHHLIHSIDDGSGSWKYAVCDDSCNCVLKDLHSHFYCEKCHRTFCLEKIHIPVIDLPKGFTLHSVNYVVKGVCAECSKV”, the “soluble on expression in E. coli” value is “not soluble”.
In the case of “MSLNRIILLDRDGVINTDSINYIKNVDELIIIPDSIIAIARLSAAGYKIGVATNQSGVSRGLYSEDDLSAIHCKLREVLAEAGGQIDALEYCIHLPEDNCFCRKPQPGMLKALAEKLNCSLDSVPFVGDRVSDIQAALAVGAQPIIVLSNMTDMSELAQYPKVPIYNSLLQYVNQLLLEGHHHHHH”, the “soluble on expression in E. coli” value is recorded as “soluble”.
The entry for “MKTPTRVSFEKKIHTPPSGDRDAERSPPKKFLRGLSGKVFRKTPEFKKQQMPTFGYIEESQFTPNLGLMMSKRGNIPKPLNLSKPISPPPSLKKTAGSVASGFSKTGQLSALQSPVNITSSNKYNIKATNLTTSLLRESISDSTTMCDTLSDINLTVMDEDYRIDGDSYYEEDSPTFMISLERNIKKCNSQFSPKRYIGEKCLICEESISSTFTGEKVVESTCSHTSHYNCYLMLFETLYFQGKFPECKICGEVSKPKDKDIVPEMVSKLLTGAGAHDDGPSSNMQQQWIDLKTARSFTGEFPQFTPQEQLIRTADISCDGFRTPRLSNSNQFEAVSYLDSPFLNSPFVNKMATTDPFDLSDDEKLDCDDEIDESAAEVWFSKTGGEHVMVSVKFQEMRTSDDLGVLQDVNHVDHEELEEREKEWKKKIDQYIETNVDKDSEFGSLILFDKLMYSDDGEQWVDNNLVILFSKFLVLFDFEEMKILGKIPRDQFYQVIKFNEDVLLCSLKSTNIPEIYLRFNENCEKWLLPKWKYCLENSSLETLPLSEIVSTVKELSHVNIIGALGAPPDVISAQSHDSRLPWKRLHSDTPLKLIVCLNLSHADGELYRKRVLKSVHQILDGLNTDDLLGIVVVGRDGSGVVGPFGTFIGMINKNWDGWTTFLDNLEVVNPNVFRDEKQQYKVTLQTCERLASTSAYVDTDDHIATGYAKQILVLNGSDVVDIEHDQKLKKAFDQLSYHWRYEISQRRMTPLNASIKQFLEELHTKRYLDVTLRLPQATFEQVYLGDMAAGEQKTRLIMDEHPHSSLIEIEYFDLVKQQRIHQTLEVPNL” is “not soluble”; for “MGSDKIHHHHHHMSSAQVNGISKRLIVESPNVKLEDGVLESRFTYRKNHFEHRADGLHVTPKEHDYSFKTVLKPRKTGLLLVGLGGNNGSTAVGSIFANQYAMTWRTKEGHSQANYFGSVTQTATVHLGYDSATQNQIFVPFKDIVPILSPNDLIISGWDISDSNLYEAMGRAKVFEPELQEKLRPFMEPIVPLPSIYYPDFIASNQGDRANNVIPGDNKLEHLEHIRADIRKFKQEHELECVIVLWTANTERYTDVRQGLNATADEIMESIRVNEDEVSPSNIFAVASILEGAHYINGSPQNTLVPGLIELAERHKVFVGGDDFKSGQTKFKSAFVDFLVSSGMKPESIVSYNHLGNNDGKNLSEARQFRSKEISKSSVVDDMVKSNQILFPDAKNPDYCVVIKYVPYVADSKRAMDEYICSIFMGGKQTFVVHNTCEDSLLASPLIYDLAILTELASRVSYKVDDEYKPFHSVLSILSLLLKAPVVPPGTPISNAFMRQFSTLTKLVTALAGFPSDTDMQIEFFTQLPAAKSKSQ” it is “soluble”.
Turning to “SNPQIRNPMKAMYPGTFYFQFKNLWEANDRDETWLCFTVEGIKRRSVVSWKTGVFRNQVDSETHCHAERCFLSWFCDDILSPNTKYQVTWYTSWSPCPDCAGEVAEFLARHSNVNLTIFTARLYYFQYPCYQEGLRSLSQEGVAVEIMDYEDFKYCWENFVYNDNEPFKPWKGLKTNFRLLKRRLRESLQ”, the “soluble on expression in E. coli” value is reported as “soluble”.
For “MSLIEIESRELADIPVLHAYPVGQKDTPLPCVIFYHGFTSSSLVYSYFAVALAQAGLRVIMPDAPDHGSRFSGDAARRLNQFWQILLQSMQEFTTLRAAIAEENWLLDDRLAVGGASMGAMTALGITARHPTVRCTASMMGSGYFTSLARSLFPPLIPETAAQQNEFNNIVAPLAEWEATNHLEQLSDRPLLLWHGLDDDVVPADESLRLQQALSETGRDKLLTCSWQPGVRHRITPEALDAAVTFFRQHLEGGSHHHHHH”, the “soluble on expression in E. coli” value is “soluble”.
The entry for “TVAYIAIGSNLASPLEQVNAALKALGDIPESHILTVSSFYRTPPLGPQDQPDYLNAAVALETSLAPEELLNHTQRIELQQGRVRKAERWGPRTLDLDIMLFGNEVINTERLTVPHYDMKNRGFMLWPLFEIAPELVFPDGEMLRQILHTRAFDKLNKW” is “soluble”.
In the case of “EVQLQQSGPELKKPGETVKISCKATNYAFTDYSMHWVKQAPGGDLKYVGWINTETDEPTFADDFKGRFAFSLDTSTSTAFLQINNLKNEDTATYFCVRDRHDYGEIFTYWGQGTTVTVSA”, the “soluble on expression in E. coli” value is listed as “soluble”.
The entry for “MKFVNFDEYKQLVDYFRNRLNPNYSSPTMLFIISITGMRASEAFGLVWDDIDFNNNTIKCRRTWNYRNKVGGFKKPKTDAGIRDIVIDDESMQLLKDFREQQKTLFESLGIKPIHDFVCYHPYRKIITLSALQNTLDHALKKLNISTPLTVHGLRHTHASVLLYHGVDIMTVSKRLGHASVAITQQTYIHIIKLEHHHHHH” is “not soluble”.
The entry for “MTAETNYFWLNCGYNRWNHNEPLVGQTALFESGAHFNPSQGFRAFKKAKVGDQVIFYQVQTDTGLLGCGEIISVETGAQNKIRVQFRFNEQLKPLTADYLKRSEALEFRMSNMKETLFNQITAEEFDLISGLGKGEIKIPRYFFLAETEEFEPGNQYTIYTHTYNGIKRNGYHFYTQLEEGDNIIFYNRTKNQSVVGIGEVSKHIHEKPPIPGRTNSTVIEVSYEKDITPITLSTLNKHPKLKNLYFLQENAKQAIASMSQAQYDAIIEMSDNNGLKSPFEMVKKPDMLESEKEEALKPFILLVVDRKEEGLKAANDLLQKANANPVITTGHPDFSEDMLYGKYLPNETGALYYREGFITQLMPKKDKSYLVIDNFNRIDTDIFQTYINVLEGYEVTLPRYNKDGNMIKWSRQKDSFYYFNPNWHIVGITYDSLEEIKEKYSEQFLKYTRIVKVKHD” is “not soluble”.
On to “MIKLGWASFSNTEFAQDIFIKFANQFYKQDDAGTILFELKKTLGVNQLDEIEKNKKVIIVNQFQNSLGKFLLFNKENTKRINSLANEHISSFLKKIFRLSGFKDMLIDVQHHKKLQKCLLREIHLLVCLINSNQFSDELMQIIEWYQYLKKHSSKLFVITASSDKKPVIEPTINEYKAIFGEYLSSFHLDLKNNQSNDLFQKLLDQIKIKATSKTSLR”, for which the “soluble on expression in E. coli” value is recorded as “soluble”.
As to “MVAPGSVTSRLGSVFPFLLVLVDLQYEGAECGVNADVEKHLELGKKLLAAGQLADALSQFHAAVDGDPDNYIAYYRRATVFLAMGKSKAALPDLTKVIQLKMDFTAARLQRGHLLLKQGKLDEAEDDFKKVLKSNPSENEEKEAQSQLIKSDEMQRLRSQALNAFGSGDYTAAIAFLDKILEVCVWDAELRELRAECFIKEGEPRKAISDLKAASKLKNDNTEAFYKISTLYYQLGDHELSLSEVRECLKLDQDHKRCFAHYKQVKKLNKLIESAEELIRDGRYTDATSKYESVMKTEPSIAEYTVRSKERICHCFSKDEKPVEAIRVCSEVLQMEPDNVNALKDRAEAYLIEEMYDEAIQDYETAQEHNENDQQIREGLEKAQRLLKQSQKRDYYKILGVKRNAKKQEIIKAYRKLALQWHPDNFQNEEEKKKAEKKFIDIAAAKEVLSDPEMRKKFDDGEDPLDAESQQGGGGNPFHRSWNSWQGFNPFSSGGPFRFKFHFN”, the “soluble on expression in E. coli” value is given as “soluble”.
As to “GAADMPFRWSFMADGKSLIAAQPDDARVIADTEALAGWYGGMTSLAPKQIKLFADGAIYSQLMQVRDPFLDGHKGEWMMDLDQFQRAFRVYWDAGYQLHVHVNGDAGLDRVLDTLETNLRRTPRDDHRTTIVHFAVSGADQVLRIRDLGAIVSANPYYVAALADNYGEVGLGPDRADNMVRLGDVEAAGISWSLHSDMPMAPCDPLFLMWCAVNRVTSSGRVAGPAQRVSAETALRGVTINAAYSLKLEHEIGSIEPGKRANLTILGDNPLTVDPEKIRDIAVIGTVMEGRDFP”, the “soluble on expression in E. coli” value is reported as “not soluble”.
